For assay [1], the target named is human CD20 (Homo sapiens CD20) (Homo sapiens) (UniProt P11836). Kind of assay: cell-based or functional assay.
Assay [2] has as its target human CD37 (Homo sapiens CD37) (Homo sapiens) (UniProt P11049). Briefly: cell-based or functional assay.

Chain of human CD20 (Homo sapiens CD20) (Homo sapiens) (P11836 whole entry): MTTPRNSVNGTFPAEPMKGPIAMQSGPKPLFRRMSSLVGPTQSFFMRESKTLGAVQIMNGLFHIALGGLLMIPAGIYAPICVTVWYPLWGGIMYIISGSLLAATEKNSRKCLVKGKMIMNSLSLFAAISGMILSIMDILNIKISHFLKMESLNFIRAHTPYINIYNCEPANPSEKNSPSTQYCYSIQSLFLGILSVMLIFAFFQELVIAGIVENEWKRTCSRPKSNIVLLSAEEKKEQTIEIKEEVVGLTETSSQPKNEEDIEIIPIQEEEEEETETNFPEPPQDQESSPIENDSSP
Chain of human CD37 (Homo sapiens CD37) (Homo sapiens) (P11049 whole entry): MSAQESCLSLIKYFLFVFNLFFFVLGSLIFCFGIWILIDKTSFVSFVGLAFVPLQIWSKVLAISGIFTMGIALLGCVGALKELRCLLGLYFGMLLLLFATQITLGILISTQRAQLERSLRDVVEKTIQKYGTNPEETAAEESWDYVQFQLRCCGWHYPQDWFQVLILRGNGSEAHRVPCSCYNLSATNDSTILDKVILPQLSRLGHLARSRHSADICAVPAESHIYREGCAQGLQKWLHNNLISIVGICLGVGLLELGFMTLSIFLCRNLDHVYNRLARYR

In assay [1], “human IgG1 isotype control antibody (an anti-dinitrophenyl (anti-DNP) antibody)” returned an ADCC reporter assay (FcγRIII-transfected Jurkat NFAT luciferase effector cells), Mean RLU, CD20/CHO target cells, Effector:Target 4:1 of 20900 RLU; an ADCC reporter assay (FcγRIII-transfected Jurkat NFAT luciferase effector cells), Mean RLU, CD20/CHO target cells, Effector:Target 8:1 of 36000 RLU; an ADCC reporter assay (FcγRIII-transfected Jurkat NFAT luciferase effector cells), Mean RLU, Raji target cells (express both hCD20 and hCD37), Effector:Target 4:1 of 16600 RLU; an ADCC reporter assay (FcγRIII-transfected Jurkat NFAT luciferase effector cells), Mean RLU, Raji target cells (express both hCD20 and hCD37), Effector:Target 8:1 of 31500 RLU. In addition, in assay [2], the ADCC reporter assay (FcγRIII-transfected Jurkat NFAT luciferase effector cells), Mean RLU, CD37/CHO target cells, Effector:Target 4:1 came to 20600 RLU and the ADCC reporter assay (FcγRIII-transfected Jurkat NFAT luciferase effector cells), Mean RLU, CD37/CHO target cells, Effector:Target 8:1 worked out at 36200 RLU.
Consider rituximab (antibody), for which, in assay [2], the ADCC reporter assay (FcγRIII-transfected Jurkat NFAT luciferase effector cells), Mean RLU, CD37/CHO target cells, Effector:Target 4:1 was found to be 20500 RLU and the ADCC reporter assay (FcγRIII-transfected Jurkat NFAT luciferase effector cells), Mean RLU, CD37/CHO target cells, Effector:Target 8:1 came to 35900 RLU.

The values above are taken from patent publication US20240059785A1.
